Source: PMC7604486 (Proceedings of the National Academy of Sciences of the …, 2020)

Target: T1, Rae1 (NTE-deleted), chain of the crystallized heterotrimer (mouse, UniProt Q8C570 24-368)
T1 sequence (looked up): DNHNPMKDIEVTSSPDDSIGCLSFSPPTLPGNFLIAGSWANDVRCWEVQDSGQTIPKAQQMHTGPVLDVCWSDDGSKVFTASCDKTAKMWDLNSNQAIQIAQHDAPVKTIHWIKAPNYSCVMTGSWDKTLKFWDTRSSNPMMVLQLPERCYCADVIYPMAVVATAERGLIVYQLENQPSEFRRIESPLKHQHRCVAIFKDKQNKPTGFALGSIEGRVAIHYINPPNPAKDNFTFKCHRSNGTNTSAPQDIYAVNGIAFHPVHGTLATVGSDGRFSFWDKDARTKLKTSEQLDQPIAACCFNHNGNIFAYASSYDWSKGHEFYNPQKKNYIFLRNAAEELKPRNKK
Assay: crystal structure

B1: Nup98 GLEBS region, chain of the crystallized heterotrimer (domain or fragment)
chain: not shown
B1: binds.
